Laboratory results reported in patent publication US11278600B2, “Human alpha-galactosidase variants” (Codexis, Inc., priority 2014, dated 2022).
Positions count from the first letter of the chain named.

B1: 370 (protein)
chain: LDNGLARTPTMGWLHWERFMCNLDCQEEPDSCISEKLFMEMAEQMVSEGWKDAGYEYLCIDDCWMAPQRDSEGRLQADPQRFPHGIRQLANYVHSKGLKLGIYADVGNKTCAGFPGSFGYYDIDAQTFADWGVDLLKFDGCYCDSLENLADGYKHMSLALNRTGRSIVYSCEWPLYMWPFQKPNYTEIRQYCNHWRNFADIDDSWKSIKSILDWTSRNQERIVDVAGPGGWNDPDMLVIGNFGLSWDQQVTQMALWAIMAAPLFMSNDLRHISPQAKALLQDKDVIAINQDPLGKQGYQLRKGDNFEVWERPLSGDAWAVAIINRQEIGGPRSYTIPVASLGKGVACNPACFITQLLPVKRQLGFYNWTSRLKSHINPTGTVLLQLENTMQMSLKDLL
modifications: Synthetic Polypeptide sequence of Variant No. 370 of mature Human GLA
B2: 486 (protein)
chain: LDNGLARTPTMGWLHWERFMCNLDCQEEPDSCISEKLFMEMAERMVSEGWKDAGYEYLCIDDCWMAPQRDSEGRLQADPQRFPHGIRQLANYVHSKGLKLGIYADVGNKTCAGFPGSFGYYDIDAQTFADWGVDLLKFDGCYCDSLENLADGYKHMSLALNRTGRSIVYSCEWPLYMWPFQKPNYTEIRQYCNHWRNFADIDDSWKSIKSILDWTSFNQERIVDVAGPGGWNDPDMLVIGNFGLSWNQQVTQMALWAIMAAPLFMSNDLRHISPQAKALLQDKDVIAINQDPLGKQGYQLRQGDNFEVWERPLSGLAWAVAMINRQEIGGPRSYTIAVASLGKGVACNPACFITQLLPVKRKLGFYEWTSRLRSHINPTGTVLLQLENTCQMSLKDLL
modifications: Synthetic Polypeptide sequence of Variant No. 486 of mature Human GLA
B3: 487 (protein)
chain: B2 chain with T389G, C390M
modifications: Synthetic Polypeptide sequence of Variant No. 487 of mature Human GLA
B4: 493 (protein)
chain: B2 chain with C390M, M392P
modifications: Synthetic Polypeptide sequence of Variant No. 493 of mature Human GLA
B5: 496 (protein)
chain: B2 chain with C390V
modifications: Synthetic Polypeptide sequence of Variant No. 496 of mature Human GLA
B6: 490 (protein)
chain: B2 chain with C390D
modifications: Synthetic Polypeptide sequence of Variant No. 490 of mature Human GLA
B7: 488 (protein)
chain: B2 chain with T389N, C390M
modifications: Synthetic Polypeptide sequence of Variant No. 488 of mature Human GLA
B8: 492 (protein)
chain: B2 chain with T389C, C390M
modifications: Synthetic Polypeptide sequence of Variant No. 492 of mature Human GLA
B9: 489 (protein)
chain: B2 chain with T389I, C390M
modifications: Synthetic Polypeptide sequence of Variant No. 489 of mature Human GLA
B10: 491 (protein)
chain: B2 chain with C390W
modifications: Synthetic Polypeptide sequence of Variant No. 491 of mature Human GLA
B11: 494 (protein)
chain: B2 chain with C390F
modifications: Synthetic Polypeptide sequence of Variant No. 494 of mature Human GLA
B12: 497 (protein)
chain: B2 chain with C390K
modifications: Synthetic Polypeptide sequence of Variant No. 497 of mature Human GLA
B13: 495 (protein)
chain: B2 chain with T389P, C390M
modifications: Synthetic Polypeptide sequence of Variant No. 495 of mature Human GLA

Experiments:
Assay type in all cases: biochemical
[1] = HTP-analysis of supernatants pretreated with acid (MUGal hydrolysis); conditions: activity of the variant/activity of Rd4BB (SEQ ID NO: 15); challenge at pH 3.7
How it was run: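 Yeast INVSc1 supernatant, GLA variants; acid challenge: McIlvaine pH 3.3-4.3, 37° C., 1-3 h. Assay: MUGal in McIlvaine pH 4.8 plus citrate pH 4.3, 37° C., 30-180 min, Na2CO3 stop, Ex 355/Em 448 nm.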

[2] = HTP-analysis of yeast culture supernatants, no challenge (MUGal hydrolysis); conditions: activity of the variant/activity of Rd4BB (SEQ ID NO: 15)
How it was run: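 GLA variants expressed in yeast INVSc1, secreted into SD-Ura broth over 66-84 h at 30° C; clarified supernatants tested without challenge. Supernatant mixed with McIlvaine buffer pH 4.8 and 2 mM MUGal (citrate/KCl, pH 4.6), 37° C for 30-180 min, carbonate-quenched, fluorescence Ex 355/Em 448 nm.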

[3] = HTP-analysis of supernatants pretreated with base (MUGal hydrolysis); conditions: activity of the variant/activity of Rd4BB (SEQ ID NO: 15); challenge at pH 9.65
How it was run: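 GLA variants were secreted by transformed INVSc1 yeast grown 66-84 h at 30° C. Supernatants were exposed to neutral-to-basic buffers (pH 7.0-9.7) at 37° C for 1-18 h, then assayed with MUGal in acidic citrate/McIlvaine buffer, with fluorescence read after quenching.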

Molecule | Relative Activity of GLA Variants After Challenge at pH 3.7 [1] | Relative Activity of GLA Variants After No Challenge (NC) [2] | Relative Activity of GLA Variants After Challenge at pH 9.65 [3]
B1 | ++ (>1.5 to 2.5 relative activity over Rd4BB (SEQ ID NO: 15)) | + (0.5 to 1.5 relative activity over Rd4BB (SEQ ID NO: 15)) | + (0.5 to 1.5 relative activity over Rd4BB (SEQ ID NO: 15))
B2 | + (0.5 to 1.5 relative activity over Rd4BB (SEQ ID NO: 15)) | + (0.5 to 1.5 relative activity over Rd4BB (SEQ ID NO: 15)) | + (0.5 to 1.5 relative activity over Rd4BB (SEQ ID NO: 15))
B3 | + (0.5 to 1.5 relative activity over Rd4BB (SEQ ID NO: 15)) | + (0.5 to 1.5 relative activity over Rd4BB (SEQ ID NO: 15)) | + (0.5 to 1.5 relative activity over Rd4BB (SEQ ID NO: 15))
B4 | + (0.5 to 1.5 relative activity over Rd4BB (SEQ ID NO: 15)) | + (0.5 to 1.5 relative activity over Rd4BB (SEQ ID NO: 15)) | + (0.5 to 1.5 relative activity over Rd4BB (SEQ ID NO: 15))
B5 | + (0.5 to 1.5 relative activity over Rd4BB (SEQ ID NO: 15)) | + (0.5 to 1.5 relative activity over Rd4BB (SEQ ID NO: 15)) | + (0.5 to 1.5 relative activity over Rd4BB (SEQ ID NO: 15))
B6 | + (0.5 to 1.5 relative activity over Rd4BB (SEQ ID NO: 15)) | + (0.5 to 1.5 relative activity over Rd4BB (SEQ ID NO: 15)) | + (0.5 to 1.5 relative activity over Rd4BB (SEQ ID NO: 15))
B7 | + (0.5 to 1.5 relative activity over Rd4BB (SEQ ID NO: 15)) | + (0.5 to 1.5 relative activity over Rd4BB (SEQ ID NO: 15)) | + (0.5 to 1.5 relative activity over Rd4BB (SEQ ID NO: 15))
B8 | + (0.5 to 1.5 relative activity over Rd4BB (SEQ ID NO: 15)) | + (0.5 to 1.5 relative activity over Rd4BB (SEQ ID NO: 15)) | + (0.5 to 1.5 relative activity over Rd4BB (SEQ ID NO: 15))
B9 | + (0.5 to 1.5 relative activity over Rd4BB (SEQ ID NO: 15)) | + (0.5 to 1.5 relative activity over Rd4BB (SEQ ID NO: 15)) | + (0.5 to 1.5 relative activity over Rd4BB (SEQ ID NO: 15))
B10 | + (0.5 to 1.5 relative activity over Rd4BB (SEQ ID NO: 15)) | + (0.5 to 1.5 relative activity over Rd4BB (SEQ ID NO: 15)) | + (0.5 to 1.5 relative activity over Rd4BB (SEQ ID NO: 15))
B11 | + (0.5 to 1.5 relative activity over Rd4BB (SEQ ID NO: 15)) | + (0.5 to 1.5 relative activity over Rd4BB (SEQ ID NO: 15)) | + (0.5 to 1.5 relative activity over Rd4BB (SEQ ID NO: 15))
B12 | ++ (>1.5 to 2.5 relative activity over Rd4BB (SEQ ID NO: 15)) | + (0.5 to 1.5 relative activity over Rd4BB (SEQ ID NO: 15)) | + (0.5 to 1.5 relative activity over Rd4BB (SEQ ID NO: 15))
B13 | + (0.5 to 1.5 relative activity over Rd4BB (SEQ ID NO: 15)) | + (0.5 to 1.5 relative activity over Rd4BB (SEQ ID NO: 15)) | + (0.5 to 1.5 relative activity over Rd4BB (SEQ ID NO: 15))
